PMC5800599

Assays:
Experiment in all cases: SPR; Fc immobilised on a CM5 chip by amine coupling (400-1000 RU), mFcγRIV flowed over; Biacore T100; 25°C; 20 mM MOPS, 100 mM sodium chloride, 0.05% P20, 1 μM bovine serum albumin; mean of at least two independent experiments
[1] = biological target: mouse IgG2b Fc I300L/K326R/D327A, complex-type N-glycan (mouse)
[2] = biological target: mouse IgG2c Fc (residues 224-447), truncated (1)GlcNAc N-glycan (mouse)
[3] = biological target: mouse IgG2b Fc I300L/K326R/D327A, truncated (1)GlcNAc N-glycan (mouse)
[4] = biological target: mouse IgG2b Fc, truncated (1)GlcNAc N-glycan (mouse)
[5] = biological target: mouse IgG2b Fc, complex-type N-glycan (mouse)
[6] = biological target: mouse IgG2c Fc L300I/R326K/A327D, complex-type N-glycan (mouse)
[7] = biological target: mouse IgG2b Fc I300L, complex-type N-glycan (mouse)
[8] = biological target: mouse IgG2b Fc I300L, truncated (1)GlcNAc N-glycan (mouse)
[9] = biological target: mouse IgG2c Fc (residues 224-447), complex-type N-glycan (mouse)
[10] = biological target: mouse IgG2c Fc L300I, truncated (1)GlcNAc N-glycan (mouse)
[11] = biological target: mouse IgG2c Fc L300I/R326K/A327D, truncated (1)GlcNAc N-glycan (mouse)
[12] = biological target: mouse IgG2c Fc L300I, complex-type N-glycan (mouse)

Kd [1]: 8 nM
Kd [2]: 600 nM
Kd [3]: 1300 nM
Kd [4]: 2800 nM
Kd [5]: 18 nM
Kd [6]: 9 nM
Kd [7]: 15 nM
Kd [8]: 1800 nM
Kd [9]: 12 nM
Kd [10]: 1000 nM
Kd [11]: 1100 nM
Kd [12]: 9 nM
B1: mouse Fc γ receptor IV (receptor)
chain: QAGLQKAVVNLDPKWVRVLEEDSVTLRCQGTFSPEDNSIKWFHNESLIPHQDANYVIQSARVKDSGMYRCQTALSTISDPVQLEVHMGWLLLQTTKWLFQEGDPIHLRCHSWQNRPVRKVTYLQNGKGKKYFHENSELLIPKATHNDSGSYFCRGLIGHNNKSSASFRISLGD
